The results in this text go back to patent publication US20080176225A1, “MEMBRANE BOUND REPORTER GENE SYSTEM” (priority 2007, published 2008).

In one data set the test system is 3T3 fibroblasts. In words: Surface enzyme activity assay of transiently transfected 3T3 fibroblasts (4-methylumbelliferyl β-D-glucuronide). The format is cell-based, murine. On the procedure: (§1) For performing surface enzyme activity assay, transiently-transfected 3T3 fibroblasts in 96-well microplates were washed once with phosphate-buffered saline and immediately assayed for βG activity by adding about 200 μl of phosphate-buffered saline (pH 7.0) buffer containing 0.1% of BSA and 0.25 mM of a β-glucuronidase substrate, 4-methylumbelliferyl β-D-glucuronide, for 30 min at 37° C. About 150 μl of the resulting mixture was transferred to a 96-well fluorescence microplate and mixed with about 75 μl of a stop buffer containing about 1 M of glycine and about 0.5 M of sodium bicarbonate at pH 11. The fluorescence of each mixture was measured at an excitation wavelength of 365 nm and an emission wavelength of 455 nm.
3T3 fibroblasts were transfected with plasmid DNAs using lipofectamine. After about 48 hour, the transfected cells were washed with phosphate-buffered saline and immediately assayed for β-glucuronidase activity by adding 4-methylumbelliferyl β-D-glucuronide for about 30 min at 37° C. The fluorescence (MUG reading as shown) of the resulting mixture was measured. The β-glucuronidase activity in the culture medium of transfected cells was also measured in an analogous way.

A short description of data set [1]: Specific activity and pH profile of purified recombinant β-glucuronidases. The format is biochemical. As to conditions: purified recombinant protein, n=3; for maximal specific activity: at optimal pH. The source says: It is contemplated that the disparity between the relative surface expression levels the relative enzymatic activity of human β-glucuronidase, mouse β-glucuronidase, and E. coli β-glucuronidase in EJ cells is probably because of the neutral pH optimum of E. coli β-glucuronidase or a highly specific enzyme activity for the recombinant E. coli β-glucuronidase enzyme, which could cause the relatively effective hydrolysis of glucuronide substrates even though even though the expression levels of E. coli β-glucuronidase present on EJ/eβG cells are relatively lower than the expression levels of human β-glucuronidase. To differentiate these possibilities, recombinant forms of each enzyme are purified in order to measure accurately their specific activities at defined pH values.
The relative enzymatic activities (percentage maximum activity) of these recombinant enzymes at the indicated pH values are shown (n=3).
E. coli β-glucuronidase display a maximal specific activity of about 20,000 U/mg whereas human β-glucuronidase and mouse β-glucuronidase had maximal specific activities of abut 1600 U/mg and about 1100 U/mg, respectively.

A further data set has as its system EJ cells. In words: Surface β-glucuronidase enzyme activity of stable EJ cells. The format is cell-based, human. The conditions noted are these: triplicate determinations. On the procedure: as §1
The results shown are the mean values of triplicate determinations. EJ/mβG cells display about 2-3 fold more β-glucuronidase activity than EJ/eβG cells and about 5-fold higher activity than EJ/hβG cells. […] The enzymatic activity of E. coli β-glucuronidase in EJ cells are relatively higher than human β-glucuronidase, even though the expression levels of E. coli β-glucuronidase present on EJ/eβG cells are relatively lower than the expression levels of human β-glucuronidase.

B1: hβG-e-B7: human β-glucuronidase fused to Ig-like C2-type and Ig-hinge-like domains, TM and cytoplasmic tail of murine B7-1 (protein)
chain: LQGGMLYPQESPSRECKELDGLWSFRADFSDNRRRGFEEQWYRRPLWESGPTVDMPVPSSFNDISQDWRLRHFVGWVWYEREVILPERWTQDLRTRVVLRIGSAHSYAIVWVNGVDTLEHEGGYLPFEADISNLVQVGPLPSRLRITIAINNTLTPTTLPPGTIQYLTDTSKYPKGYFVQNTYFDFFNYAGLQRSVLLYTTPTTYIDDITVTTSVEQDSGLVNYQISVKGSNLFKLEVRLLDAENKVVANGTGTQGQLKVPGVSLWWPYLMHERPAYLYSLEVQLTAQTSLGPVSDFYTLPVGIRTVAVTKSQFLINGKPFYFHGVNKHEDADIRGKGFDWPLLVKDFNLLRWLGANAFRTSHYPYAEEVMQMCDRYGIVVIDECPGVGLALPQFFNNVSLHHHMQVMEEVVRRDKNHPAVVMWSVANEPASHLESAGYYLKMVIAHTKSLDPSRPVTFVSNSNYAADKGAPYVDVICLNSYYSWYHDYGHLELIQLQLATQFENWYKKYQKPIIQSEYGAETIAGFHQDPPLMFTEEYQKSLLEQYHLGLDQKRRKYVVGELIWNFADFMTEQSPTRVLGNKKGIFTRQRQPKSAAFLLRERYWKIANETRYPHSVAKSQCLENSPFTVDEQKLISEEDLADFSTPNITESGNPSADTKRITCFASGGFPKPRFSWLENGRELPGINTTISQDPESELYTISSQLDFNTTRNHTIKCLIKYGDAHVSEDFTWEKPPEDPPDSKNTLVLFGAGFGAVITVVVIVVIIKCFCKHRSCFRRNEASRETNNSLTFGPEEALAEQTVFL
Turning to B1, the “β-glucuronidase enzyme activity on the cell surface” value in the data set on 3T3 fibroblasts is given as “greatest levels”.

B2: human β-glucuronidase: purified recombinant human β-glucuronidase protein (protein, listed as Homo sapiens)
chain: LQGGMLYPQESPSRECKELDGLWSFRADFSDNRRRGFEEQWYRRPLWESGPTVDMPVPSSFNDISQDWRLRHFVGWVWYEREVILPERWTQDLRTRVVLRIGSAHSYAIVWVNGVDTLEHEGGYLPFEADISNLVQVGPLPSRLRITIAINNTLTPTTLPPGTIQYLTDTSKYPKGYFVQNTYFDFFNYAGLQRSVLLYTTPTTYIDDITVTTSVEQDSGLVNYQISVKGSNLFKLEVRLLDAENKVVANGTGTQGQLKVPGVSLWWPYLMHERPAYLYSLEVQLTAQTSLGPVSDFYTLPVGIRTVAVTKSQFLINGKPFYFHGVNKHEDADIRGKGFDWPLLVKDFNLLRWLGANAFRTSHYPYAEEVMQMCDRYGIVVIDECPGVGLALPQFFNNVSLHHHMQVMEEVVRRDKNHPAVVMWSVANEPASHLESAGYYLKMVIAHTKSLDPSRPVTFVSNSNYAADKGAPYVDVICLNSYYSWYHDYGHLELIQLQLATQFENWYKKYQKPIIQSEYGAETIAGFHQDPPLMFTEEYQKSLLEQYHLGLDQKRRKYVVGELIWNFADFMTEQSPTRVLGNKKGIFTRQRQPKSAAFLLRERYWKIANETRYPHSVAKSQCLENSPFT
As to B2, the maximal specific activity in data set [1] is about 1600 U/mg.

B3: mβG-e-B7: murine β-glucuronidase fused to immunoglobulin-like C2-type extracellular region, transmembrane domain and cytoplasmic tail of murine B7-1 antigen (protein)
chain: LKGGMLFPKESPSRELKALDGLWHFRADLSNNRLQGFEQQWYRQPLRESGPVLDMPVPSSFNDITQEAALRDFIGWVWYEREAILPRRWTQDTDMRVVLRINSAHYYAVVWVNGIHVVEHEGGHLPFEADISKLVQSGPLTTCRITIAINNTLTPHTLPPGTIVYKTDTSMYPKGYFVQDTSFDFFNYAGLHRSVVLYTTPTTYIDDITVITNVEQDIGLVTYWISVQGSEHFQLEVQLLDEDGKVVAHGTGNQGQLQVPSANLWWPYLMHEHPAYMYSLEVKVTTTESVTDYYTLPVGIRTVAVTKSKFLINGKPFYFQGVNKHEDSDIRGKGFDWPLLVKDFNLLRWLGANSFRTSHYPYSEEVLQLCDRYGIVVIDECPGVGIVLPQSFGNESLRHHLEVMEELVRRDKNHPAVVMWSVANEPSSALKPAAYYFKTLITHTKALDLTRPVTFVSNAKYDADLGAPYVDVICVNSYFSWYHDYGHLEVIQPQLNSQFENWYKTHQKPIIQSEYGADAIPGIHEDPPRMFSEEYQKAVLENYHSVLDQKRKEYVVGELIWNFADFMTNQSPLRVIGNKKGIFTRQRQPKTSAFILRERYWRIANETGGHGSGPRTQCFGSRPFTFVDEQKLISEEDLADFSTPNITESGNPSADTKRITCFASGGFPKPRFSWLENGRELPGINTTISQDPESELYTISSQLDFNTTRNHTIKCLIKYGDAHVSEDFTWEKPPEDPPDSKNTLVLFGAGFGAVITVVVIVVIIKCFCKHRSCFRRNEASRETNNSLTFGPEEALAEQTVFL
As for B3, in the data set with EJ cells (higher activity), the “surface β-glucuronidase activity of EJ/mβG cells relative to EJ/hβG cells” value is recorded as “about 5 fold”. Besides, the “surface β-glucuronidase activity of EJ/mβG cells relative to EJ/eβG cells” value in the data set with EJ cells (more activity) is on record as 2-3 fold.

B4: E. coli β-glucuronidase: purified recombinant E. coli β-glucuronidase protein (protein, UniProt P05804 1-603, looked up)
Beta-glucuronidase: MLRPVETPTREIKKLDGLWAFSLDRENCGIDQRWWESALQESRAIAVPGSFNDQFADADIRNYAGNVWYQREVFIPKGWAGQRIVLRFDAVTHYGKVWVNNQEVMEHQGGYTPFEADVTPYVIAGKSVRITVCVNNELNWQTIPPGMVITDENGKKKQSYFHDFFNYAGIHRSVMLYTTPNTWVDDITVVTHVAQDCNHASVDWQVVANGDVSVELRDADQQVVATGQGTSGTLQVVNPHLWQPGEGYLYELCVTAKSQTECDIYPLRVGIRSVAVKGEQFLINHKPFYFTGFGRHEDADLRGKGFDNVLMVHDHALMDWIGANSYRTSHYPYAEEMLDWADEHGIVVIDETAAVGFNLSLGIGFEAGNKPKELYSEEAVNGETQQAHLQAIKELIARDKNHPSVVMWSIANEPDTRPQGAREYFAPLAEATRKLDPTRPITCVNVMFCDAHTDTISDLFDVLCLNRYYGWYVQSGDLETAEKVLEKELLAWQEKLHQPIIITEYGVDTLAGLHSMYTDMWSEEYQCAWLDMYHRVFDRVSAVVGEQVWNFADFATSQGILRVGGNKKGIFTRDRKPKSAAFLLQKRWTGMNFGEKPQQGGKQ
On to B4, for which, in data set [1], the maximal specific activity result was “about 20,000 U/mg” and the “pH of maximal/optimal enzymatic activity” value was “neutral pH range”.

B5: mouse β-glucuronidase: purified recombinant mouse β-glucuronidase protein (protein, listed as Mus musculus)
chain: LKGGMLFPKESPSRELKALDGLWHFRADLSNNRLQGFEQQWYRQPLRESGPVLDMPVPSSFNDITQEAALRDFIGWVWYEREAILPRRWTQDTDMRVVLRINSAHYYAVVWVNGIHVVEHEGGHLPFEADISKLVQSGPLTTCRITIAINNTLTPHTLPPGTIVYKTDTSMYPKGYFVQDTSFDFFNYAGLHRSVVLYTTPTTYIDDITVITNVEQDIGLVTYWISVQGSEHFQLEVQLLDEDGKVVAHGTGNQGQLQVPSANLWWPYLMHEHPAYMYSLEVKVTTTESVTDYYTLPVGIRTVAVTKSKFLINGKPFYFQGVNKHEDSDIRGKGFDWPLLVKDFNLLRWLGANSFRTSHYPYSEEVLQLCDRYGIVVIDECPGVGIVLPQSFGNESLRHHLEVMEELVRRDKNHPAVVMWSVANEPSSALKPAAYYFKTLITHTKALDLTRPVTFVSNAKYDADLGAPYVDVICVNSYFSWYHDYGHLEVIQPQLNSQFENWYKTHQKPIIQSEYGADAIPGIHEDPPRMFSEEYQKAVLENYHSVLDQKRKEYVVGELIWNFADFMTNQSPLRVIGNKKGIFTRQRQPKTSAFILRERYWRIANETGGHGSGPRTQCFGSRPFTF
As for B5, in data set [1], the maximal specific activity entry is recorded as “about 1100 U/mg”.
